Experimental data published in patent US20130078247A1 (Boehringer Ingelheim, published 2013).
Changes are numbered by the printed parent chain. Like-named read-outs stand apart in the source and are kept apart here. One block for each binder: values may come before it.

Experiments:
[1] = target: T1, human DLL4, full length, overexpressed on CHO or HEK293 cells (human, UniProt Q9NR61 27-685); assay: FACS titration on HEK293-hDLL4 cells
T1 construct: also called CHO-hDLL4; CHO-hDII4
Description: (§1) In order to determine the cynomologus cross-reactivity of the VHHs, a FACS binding experiment is performed. Cynomolgus DII4 expressing HEK293 cells (transient or stable transfection) are used for a titration binding experiment of the VHHs. After a 30 minutes incubation on ice, all samples are washed and detection is performed by applying anti-c-myc-Alexa647 (Santa Cruz Biotechnology, Santa Cruz, Calif., USA). Human and mouse DII4 overexpressing HEK293 cells are taken as reference. The mean MCF value is determined on the FACS Array and used for calculation of the EC₅₀ value (see FIG. 9).

[2] = target: T2, cynomolgus DLL4, full length, overexpressed on cells (cynomolgus, UniProt Q9NR61 27-685 (human entry)); assay: FACS titration on HEK293-cDLL4 cells
T2 construct: also called CHO-cDLL4; cDLL4
T2 chain: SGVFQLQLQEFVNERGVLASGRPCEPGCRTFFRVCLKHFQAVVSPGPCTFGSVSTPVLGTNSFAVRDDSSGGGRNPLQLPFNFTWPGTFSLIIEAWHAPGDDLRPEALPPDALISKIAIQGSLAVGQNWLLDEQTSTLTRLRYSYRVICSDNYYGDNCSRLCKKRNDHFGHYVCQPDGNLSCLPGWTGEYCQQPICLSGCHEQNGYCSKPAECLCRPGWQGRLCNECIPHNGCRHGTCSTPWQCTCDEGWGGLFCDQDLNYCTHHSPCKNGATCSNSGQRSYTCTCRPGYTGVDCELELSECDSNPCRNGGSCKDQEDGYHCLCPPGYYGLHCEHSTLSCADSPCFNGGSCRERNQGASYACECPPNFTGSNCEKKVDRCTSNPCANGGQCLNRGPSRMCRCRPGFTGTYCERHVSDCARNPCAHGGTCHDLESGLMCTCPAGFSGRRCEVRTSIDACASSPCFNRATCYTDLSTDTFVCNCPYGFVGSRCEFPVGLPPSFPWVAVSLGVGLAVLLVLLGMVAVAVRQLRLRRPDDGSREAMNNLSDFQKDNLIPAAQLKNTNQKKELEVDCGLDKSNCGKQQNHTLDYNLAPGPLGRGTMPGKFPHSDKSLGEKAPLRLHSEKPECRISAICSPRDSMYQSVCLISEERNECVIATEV
Description: as §1

[3] = target: T3, mouse Ang2 (mouse, UniProt O35608 19-496, limits assumed); assay: competition ELISA: mAng2 binding to mTie2
T3 construct: also called mAng2
T3 sequence (looked up): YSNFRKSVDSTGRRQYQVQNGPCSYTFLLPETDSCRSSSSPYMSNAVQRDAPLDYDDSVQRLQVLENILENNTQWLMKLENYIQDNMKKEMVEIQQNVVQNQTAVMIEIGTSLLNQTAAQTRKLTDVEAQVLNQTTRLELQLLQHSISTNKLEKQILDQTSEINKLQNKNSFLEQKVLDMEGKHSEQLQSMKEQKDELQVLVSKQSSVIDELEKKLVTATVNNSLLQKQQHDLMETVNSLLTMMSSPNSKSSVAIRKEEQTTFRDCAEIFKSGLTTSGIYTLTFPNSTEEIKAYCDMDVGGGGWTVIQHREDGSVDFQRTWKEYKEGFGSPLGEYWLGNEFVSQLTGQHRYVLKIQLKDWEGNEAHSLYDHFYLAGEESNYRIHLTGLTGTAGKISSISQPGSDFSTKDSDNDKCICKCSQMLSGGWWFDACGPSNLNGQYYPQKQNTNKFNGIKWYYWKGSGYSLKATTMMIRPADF
Description: (§2) This assay is also performed after incubation of the VHH with 0.5 μM human serum albumin.

[4] = target: T4, cynomolgus Ang2 (cynomolgus); assay: competition ELISA: cAng2 binding to cTie2
T4 construct: also called cAng2; cyno Ang2
Description: as §2

[5] = target: T5, mouse DLL4, full length, overexpressed on CHO or HEK293 cells (mouse, UniProt Q9JI71 27-686); assay: FMAT competition: labelled hNotch1-Fc on CHO-mDLL4 cells
T5 construct: whole, on cells; also called CHO-mDLL4; CHO-mDII4
From the text: (§3) All calculations are based on the FL1_total signal which comprises the average of the fluorescence per well times the number of counts per well.

[6] = target: T6, recombinant human DLL4 extracellular domain, C-terminally His-tagged (R&D Systems) (human, UniProt Q9NR61 25-522, biotinylated in the competition assays (sites not given)); assay: binding ELISA on coated rhDLL4
T6 construct: also called rhDLL4; hDLL4; not shown: C-terminal His tag
T6 sequence (Q9NR61 25-522): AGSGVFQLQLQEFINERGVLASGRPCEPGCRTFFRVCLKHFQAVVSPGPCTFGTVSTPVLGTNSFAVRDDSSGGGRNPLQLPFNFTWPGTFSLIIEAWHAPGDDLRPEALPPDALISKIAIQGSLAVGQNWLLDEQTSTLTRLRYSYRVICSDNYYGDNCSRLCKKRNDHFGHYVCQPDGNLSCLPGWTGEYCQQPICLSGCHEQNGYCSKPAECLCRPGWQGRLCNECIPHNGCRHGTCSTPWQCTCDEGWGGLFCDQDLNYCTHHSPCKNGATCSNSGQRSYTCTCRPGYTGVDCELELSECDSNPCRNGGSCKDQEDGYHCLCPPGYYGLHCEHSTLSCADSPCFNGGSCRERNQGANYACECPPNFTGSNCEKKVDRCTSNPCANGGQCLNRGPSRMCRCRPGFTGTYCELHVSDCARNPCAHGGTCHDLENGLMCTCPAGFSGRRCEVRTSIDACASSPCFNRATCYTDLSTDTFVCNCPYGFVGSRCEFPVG

[7] = target: T7, recombinant human Jagged-1 (Alexis) (human, UniProt P78504 34-1067, limits assumed); assay: rhDLL1/rhJAG1 binding ELISA
T7 construct: also called hJagged-1; hJAG1

[8] = target: T8, recombinant human DLL1 (Alexis) (human, UniProt O00548 18-545, limits assumed); assay: rhDLL1/rhJAG1 binding ELISA
T8 construct: also called hDLL1; rhDLL1
T8 sequence (looked up): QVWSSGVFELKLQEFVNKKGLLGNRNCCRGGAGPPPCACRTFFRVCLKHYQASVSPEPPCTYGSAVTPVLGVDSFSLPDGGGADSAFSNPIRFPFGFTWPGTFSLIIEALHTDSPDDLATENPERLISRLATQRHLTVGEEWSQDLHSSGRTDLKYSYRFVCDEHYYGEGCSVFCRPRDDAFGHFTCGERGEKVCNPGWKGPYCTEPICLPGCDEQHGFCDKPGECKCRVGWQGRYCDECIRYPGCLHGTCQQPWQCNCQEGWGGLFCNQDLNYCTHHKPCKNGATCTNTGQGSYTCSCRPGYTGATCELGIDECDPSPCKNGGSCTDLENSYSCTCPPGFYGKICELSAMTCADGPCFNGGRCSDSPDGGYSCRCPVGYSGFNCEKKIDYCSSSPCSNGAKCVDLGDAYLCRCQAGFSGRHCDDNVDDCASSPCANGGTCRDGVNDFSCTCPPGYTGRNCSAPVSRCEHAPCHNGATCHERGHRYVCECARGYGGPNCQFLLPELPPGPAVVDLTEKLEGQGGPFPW

[9] = target: T9, recombinant mouse DLL4 extracellular domain, C-terminally His-tagged (R&D Systems) (mouse, UniProt Q9JI71 27-525); assay: binding ELISA on coated rmDLL4
T9 construct: range 1-525; also called rmDLL4; mDLL4; not shown: C-terminal His tag
T9 sequence (Q9JI71 27-525 limits assumed): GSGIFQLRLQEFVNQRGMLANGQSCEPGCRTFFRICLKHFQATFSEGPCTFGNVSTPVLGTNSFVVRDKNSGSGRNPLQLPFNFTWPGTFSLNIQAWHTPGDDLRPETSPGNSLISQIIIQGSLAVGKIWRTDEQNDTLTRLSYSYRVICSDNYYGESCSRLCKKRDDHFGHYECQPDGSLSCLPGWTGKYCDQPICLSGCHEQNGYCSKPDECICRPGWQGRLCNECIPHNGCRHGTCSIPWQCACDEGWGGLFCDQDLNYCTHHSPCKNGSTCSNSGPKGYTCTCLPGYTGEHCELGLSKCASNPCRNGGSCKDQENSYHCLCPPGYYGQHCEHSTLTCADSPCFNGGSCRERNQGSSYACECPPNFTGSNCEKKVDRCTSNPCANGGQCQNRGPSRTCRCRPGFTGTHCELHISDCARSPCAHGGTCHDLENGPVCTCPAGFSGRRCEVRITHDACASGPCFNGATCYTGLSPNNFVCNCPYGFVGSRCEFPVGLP
Description: In order to determine cross-reactivity to mouse DII4 a binding ELISA is performed. […] Wells are blocked with a casein solution (1% in PBS). VHHs are applied as dilution series and binding is detected using a mouse anti-myc (Roche) and an anti-mouse-AP conjugate (Sigma, St Louis, Mo., USA) (FIG. 7).

[10] = target: T10, human Ang2 (human, UniProt O15123 19-496, limits assumed); assay: competition ELISA hAng2/hTie2-Fc
T10 construct: also called hAng2; human Angiopoietin2
T10 sequence (looked up): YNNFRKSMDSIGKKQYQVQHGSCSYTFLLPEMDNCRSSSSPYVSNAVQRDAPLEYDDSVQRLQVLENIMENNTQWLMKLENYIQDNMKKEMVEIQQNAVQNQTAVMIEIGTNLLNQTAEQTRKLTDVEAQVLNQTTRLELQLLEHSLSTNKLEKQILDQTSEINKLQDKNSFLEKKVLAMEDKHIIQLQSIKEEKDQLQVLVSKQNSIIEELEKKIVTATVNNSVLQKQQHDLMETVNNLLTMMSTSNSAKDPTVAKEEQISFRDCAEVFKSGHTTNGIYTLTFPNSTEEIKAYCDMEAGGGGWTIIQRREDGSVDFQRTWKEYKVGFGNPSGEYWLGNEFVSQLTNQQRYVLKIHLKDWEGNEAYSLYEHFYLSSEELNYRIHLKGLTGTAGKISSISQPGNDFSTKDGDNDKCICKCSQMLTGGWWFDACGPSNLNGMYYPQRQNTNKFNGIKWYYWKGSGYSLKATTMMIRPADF
Description: as §2

[11] = target: T3, mouse Ang2; assay: competition ELISA mAng2/mTie2
Description: as §2

[12] = target: T10, human Ang2; assay: competition ELISA hAng2/hTie2-Fc, with 0.5 uM HSA [continued]
Description: as §2

[13] = target: T10, human Ang2; assay: competition ELISA: hAng2 binding to hTie2
[14] = target: T4, cynomolgus Ang2; assay: competition ELISA: cAng2 binding to cTie2; remark: listed apart in the source
[15] = target: T3, mouse Ang2; assay: competition ELISA: mAng2 binding to mTie2; remark: listed apart in the source
[16] = target: T1, human DLL4, full length, overexpressed …; assay: FMAT competition: labelled hNotch1-Fc on CHO-hDLL4 cells
From the text: as §3

[17] = target: T3, mouse Ang2; assay: competition ELISA: mAng2 binding to mTie2; remark: listed apart in the source
Description: as §2

[18] = target: T4, cynomolgus Ang2; assay: competition ELISA: cAng2 binding to cTie2; remark: listed apart in the source
Description: as §2

B2: 00045 (VHH)
VHH: EVQLVESGGGLVQPGGSLRLSCAASGFALDYYAIGWFRQAPGKEREGVSCISSSDGITYYADSVKGRFTISRDNSKNTVYLQMNSLRPEDTAVYYCATDSGGYIDYDCMGLGYDYWGQGTLVTVSS
IC50 (read off the curve) [3]: ~0.2 nM
IC50 (read off the curve) [4]: ~0.2 nM

B5: 00050 (VHH)
VHH: EVQLVESGGGLVQPGGSLRLSCAASGFTFDDYALGWFRQAPGKEREGVSCIRCSDGSTYYADSVKGRFTISSDNSKNTVYLQMNSLRPEDTAVYYCAASIVPRSKLEPYEYDAWGQGTLVTVSS
IC50 (read off the curve) [10]: ~6 nM
IC50 (read off the curve) [11]: ~9 nM
IC50 (read off the curve) [12]: ~6 nM

B8: 00042 (VHH)
VHH: EVQLVESGGGLVQPGGSLRLSCAASGFTLDDYAIGWFRQAPGKEREGVSSIRDNDGSTYYADSVKGRFTISSDNSKNTVYLQMNSLRPEDTAVYYCAAVPAGRLRFGEQWYPLYEYDAWGQGTLVTVSS
IC50 (read off the curve) [10]: ~0.6 nM
IC50 (read off the curve) [12]: ~0.6 nM

B9: 00042 (VHH)
VHH: B8 VHH
IC50 (read off the curve) [3]: ~1 nM
IC50 (read off the curve) [4]: ~0.5 nM
IC50 (read off the curve) [17]: ~2 nM
IC50 (read off the curve) [18]: ~0.8 nM

The next lines start with the values.

EC50 (read off the curve) [1]: ~5 nM
binding result [2]: binds
B1: DLLBII56C04 (VHH)
VHH: EVQLVESGGGLVQPGGSLRLSCTASGFTFDVYAIGWFRQAPGKEPEGISCISSSGSITYYADSVKGRFTTSRDSAKNTVYLQMNSLKPEDTAVYYCATPGIAACRGIHYWGQGTQVTVSS
notes: not shown: C-terminal c-myc and His6 tags

binding result [5]: binds
B3: 78B04 (VHH)
VHH: EVQLVESGGGLVQAGGSLRLSCAASGRTFSNYIMGWFRQAPGKEREFVAGISRYGDYTYYADSVKGRFTISRDNVKNTVYLRMNSLKPDDTAVYYCAANEGYCSGYGCYEDSGQYDYWGQGTQVTVSS
notes: also called DLLBII78B04

EC50 (read off the curve) [6]: ~0.7 nM
binding result [7]: no binding
binding result [8]: no binding
EC50 (read off the curve) [9]: ~0.9 nM
B4: DLLBII133A09 (VHH)
VHH: EVQLVESGGGLVQPGGSLRLSCAASGFTFGSYDMSWVRRSPGKGPEWVSAINSGGGSTYYADYVKGRFTISRDNAKNTLYLQMNSLKPEDTAVYYCAADRYIWARQGEYWGAYAYDYWGQGTQVTVSS
notes: as for B1

IC50 (read off the curve) [13]: ~20 nM
IC50 (read off the curve) [14]: ~40 nM
IC50 (read off the curve) [15]: ~30 nM
B6: 00921 (VHH)
VHH: B5 VHH with D55G

binding result [16]: binds
binding result [5]: binds
B7: 106H01 (VHH)
VHH: EVQLVESGGGLVQAGGSLRLSCAASGSTFSNYAMGWYRQAPGKQRELVVGISSDGSTHYADSAKGRFTISRDDAKNTVYLQMNSLKTEDTAVYYCYVPVKVAGLEYAYWGQGTQVTVSS
notes: also called DLLBII106H01
